Test results published in US20090276160A1.

Columns and labels:
Assay in all cases: cell-based or functional assay
[1] = target: Activated Protein C (Haematologic Technologies) (human) (UniProt P04070)
[2] = target: Bovine trypsin (Worthington) (bovine) (UniProt P00760)
[3] = target: Chymotrypsin (Sigma) (human) (UniProt P17538)
[4] = target: T1, Complement factor C1s (Calbiochem) (human) (UniProt P09871)
T1 sequence (looked up): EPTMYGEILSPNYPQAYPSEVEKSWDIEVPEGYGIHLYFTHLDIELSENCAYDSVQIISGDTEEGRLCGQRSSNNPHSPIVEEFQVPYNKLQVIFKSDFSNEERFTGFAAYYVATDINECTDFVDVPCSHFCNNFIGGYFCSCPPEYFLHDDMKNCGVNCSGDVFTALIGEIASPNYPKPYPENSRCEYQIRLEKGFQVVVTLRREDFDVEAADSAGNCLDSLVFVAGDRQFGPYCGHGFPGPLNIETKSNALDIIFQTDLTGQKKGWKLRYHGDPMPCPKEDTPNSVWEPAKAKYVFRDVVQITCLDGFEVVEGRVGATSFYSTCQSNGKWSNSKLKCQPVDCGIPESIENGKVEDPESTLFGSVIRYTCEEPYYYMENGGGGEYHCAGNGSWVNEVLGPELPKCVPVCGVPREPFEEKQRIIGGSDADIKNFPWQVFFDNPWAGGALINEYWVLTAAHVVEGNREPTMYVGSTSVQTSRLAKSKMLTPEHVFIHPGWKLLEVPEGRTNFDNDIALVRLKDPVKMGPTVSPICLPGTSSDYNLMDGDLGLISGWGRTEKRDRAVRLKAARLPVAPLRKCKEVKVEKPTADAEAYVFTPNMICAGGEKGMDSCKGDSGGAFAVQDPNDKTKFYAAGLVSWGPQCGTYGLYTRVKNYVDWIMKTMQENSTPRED

[5] = target: Factor XIIa (American Diagnostica) (human) (UniProt P00748)
[6] = target: Factor XIa (Haematologic Technologies) (human) (UniProt P03951)
[7] = target: Factor Xa (Haematologic Technologies) (human) (UniProt P00742)
[8] = target: Hepatocyte growth factor activator (HGFA), activated 34 kDa short form, residues Val373 to Ser655 with a C-terminal poly-histidine tag (human) (UniProt Q04756)
[9] = target: Hepsin (residues 45-417) (human) (UniProt P05981)
[10] = target: T2, Matriptase (residues 615-855) (human) (UniProt Q9Y5Y6)
T2 sequence (looked up): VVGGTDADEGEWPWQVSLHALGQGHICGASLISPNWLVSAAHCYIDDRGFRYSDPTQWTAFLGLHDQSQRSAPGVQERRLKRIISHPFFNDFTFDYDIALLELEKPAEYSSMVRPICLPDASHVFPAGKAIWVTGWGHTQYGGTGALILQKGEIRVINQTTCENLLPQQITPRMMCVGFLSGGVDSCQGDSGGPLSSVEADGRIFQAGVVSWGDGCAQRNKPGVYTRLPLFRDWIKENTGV

[11] = target: Plasma kallikrein (American Diagnostica) (human) (UniProt P03952)
[12] = target: Plasmin (Haematologic Technologies) (human) (UniProt P00747)
[13] = target: Thrombin (Haematologic Technologies) (human) (UniProt P00734)
[14] = target: Tissue factor/factor VIIa complex: human tissue factor (residues 1-219) with human recombinant FVIIa (human) (UniProt P13726)
[15] = target: tPA (Activase, Genentech) (human) (UniProt P00750)
uPA (Chemicon) (human) = uPA (Chemicon) (human) (UniProt P00749)

Chain of sHAI-1B, soluble HAI-1B ectodomain (O43278 36-465 limits assumed): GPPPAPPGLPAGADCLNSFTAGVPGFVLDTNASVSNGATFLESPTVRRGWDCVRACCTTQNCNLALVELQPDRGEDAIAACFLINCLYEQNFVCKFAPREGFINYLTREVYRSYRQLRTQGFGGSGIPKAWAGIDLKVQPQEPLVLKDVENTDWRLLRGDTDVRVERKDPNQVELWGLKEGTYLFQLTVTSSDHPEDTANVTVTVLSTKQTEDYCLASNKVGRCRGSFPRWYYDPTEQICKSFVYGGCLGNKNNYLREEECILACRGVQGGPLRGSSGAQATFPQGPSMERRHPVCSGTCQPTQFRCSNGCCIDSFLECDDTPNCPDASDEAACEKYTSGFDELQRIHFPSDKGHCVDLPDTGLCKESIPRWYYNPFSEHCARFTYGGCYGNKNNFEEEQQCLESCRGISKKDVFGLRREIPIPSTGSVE
Chain of Hepatocyte growth factor activator (HGFA), activated 34 kDa short form, residues Val373 to Ser655 with a C-terminal poly-histidine tag (human) (Q04756 373-407, chain 1 of 2): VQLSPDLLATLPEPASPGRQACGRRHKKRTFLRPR
Chain of Hepatocyte growth factor activator (HGFA), activated 34 kDa short form, residues Val373 to Ser655 with a C-terminal poly-histidine tag (human) (Q04756 408-655, chain 2 of 2): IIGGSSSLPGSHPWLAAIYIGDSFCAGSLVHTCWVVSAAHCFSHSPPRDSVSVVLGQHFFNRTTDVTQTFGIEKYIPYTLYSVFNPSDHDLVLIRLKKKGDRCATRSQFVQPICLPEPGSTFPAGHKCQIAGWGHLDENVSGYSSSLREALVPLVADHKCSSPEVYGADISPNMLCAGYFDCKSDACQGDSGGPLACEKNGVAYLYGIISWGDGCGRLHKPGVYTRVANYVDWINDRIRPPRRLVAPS
Chain of Plasmin (Haematologic Technologies) (human) (P00747 97-810 limits assumed): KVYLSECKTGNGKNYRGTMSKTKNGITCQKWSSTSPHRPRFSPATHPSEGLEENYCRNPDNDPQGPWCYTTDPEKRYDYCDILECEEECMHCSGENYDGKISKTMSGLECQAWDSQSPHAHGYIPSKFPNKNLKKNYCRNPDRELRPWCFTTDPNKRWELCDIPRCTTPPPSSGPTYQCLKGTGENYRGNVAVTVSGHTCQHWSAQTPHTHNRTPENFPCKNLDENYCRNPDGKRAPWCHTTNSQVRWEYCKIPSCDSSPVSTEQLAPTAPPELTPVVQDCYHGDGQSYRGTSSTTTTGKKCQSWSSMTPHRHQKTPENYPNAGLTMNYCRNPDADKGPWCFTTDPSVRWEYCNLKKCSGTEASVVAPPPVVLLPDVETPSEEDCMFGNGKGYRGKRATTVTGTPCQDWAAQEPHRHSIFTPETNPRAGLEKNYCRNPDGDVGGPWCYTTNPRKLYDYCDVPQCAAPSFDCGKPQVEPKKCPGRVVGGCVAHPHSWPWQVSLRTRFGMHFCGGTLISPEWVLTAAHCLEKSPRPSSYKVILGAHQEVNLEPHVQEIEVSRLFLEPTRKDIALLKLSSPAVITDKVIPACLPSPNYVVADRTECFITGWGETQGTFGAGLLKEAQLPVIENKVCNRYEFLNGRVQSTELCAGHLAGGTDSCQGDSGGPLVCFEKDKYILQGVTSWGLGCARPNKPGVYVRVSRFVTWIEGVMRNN
Chain of Hepsin (residues 45-417) (human) (P05981 45-417 limits assumed): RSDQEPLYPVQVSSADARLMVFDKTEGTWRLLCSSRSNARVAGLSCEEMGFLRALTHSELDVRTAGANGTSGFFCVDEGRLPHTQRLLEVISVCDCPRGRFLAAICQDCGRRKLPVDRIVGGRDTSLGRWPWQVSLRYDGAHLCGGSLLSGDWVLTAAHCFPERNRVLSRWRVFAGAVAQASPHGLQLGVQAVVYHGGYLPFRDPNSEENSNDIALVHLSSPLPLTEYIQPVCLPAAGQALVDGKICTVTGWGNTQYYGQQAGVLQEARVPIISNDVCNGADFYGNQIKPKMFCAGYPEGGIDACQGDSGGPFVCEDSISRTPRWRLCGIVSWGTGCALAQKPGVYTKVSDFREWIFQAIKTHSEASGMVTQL
Chain of Bovine trypsin (Worthington) (bovine) (P00760 24-246): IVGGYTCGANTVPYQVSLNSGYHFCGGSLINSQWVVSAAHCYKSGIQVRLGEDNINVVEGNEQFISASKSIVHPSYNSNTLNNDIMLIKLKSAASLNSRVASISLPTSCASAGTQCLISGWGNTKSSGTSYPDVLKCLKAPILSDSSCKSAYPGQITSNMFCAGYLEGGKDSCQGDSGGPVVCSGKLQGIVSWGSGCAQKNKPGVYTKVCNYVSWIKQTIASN
Chain of Plasma kallikrein (American Diagnostica) (human) (P03952 20-638 limits assumed): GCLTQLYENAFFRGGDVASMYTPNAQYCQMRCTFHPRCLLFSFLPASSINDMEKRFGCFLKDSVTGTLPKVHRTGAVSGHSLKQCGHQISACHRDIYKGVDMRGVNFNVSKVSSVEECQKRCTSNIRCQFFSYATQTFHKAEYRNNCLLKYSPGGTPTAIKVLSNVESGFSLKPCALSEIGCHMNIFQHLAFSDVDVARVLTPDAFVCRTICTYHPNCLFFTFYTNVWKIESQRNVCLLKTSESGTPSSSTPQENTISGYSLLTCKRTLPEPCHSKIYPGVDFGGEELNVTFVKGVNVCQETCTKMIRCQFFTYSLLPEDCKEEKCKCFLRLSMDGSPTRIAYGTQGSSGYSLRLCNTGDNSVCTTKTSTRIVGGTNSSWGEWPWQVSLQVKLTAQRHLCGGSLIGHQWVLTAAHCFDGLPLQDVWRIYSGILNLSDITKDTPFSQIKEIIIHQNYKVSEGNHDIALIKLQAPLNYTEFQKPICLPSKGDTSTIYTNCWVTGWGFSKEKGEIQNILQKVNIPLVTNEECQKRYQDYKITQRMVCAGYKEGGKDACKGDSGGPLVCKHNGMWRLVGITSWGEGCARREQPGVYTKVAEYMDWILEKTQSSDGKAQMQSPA
Chain of Tissue factor/factor VIIa complex: human tissue factor (residues 1-219) with human recombinant FVIIa (human) (P13726 33-251 limits assumed, chain 1 of 2): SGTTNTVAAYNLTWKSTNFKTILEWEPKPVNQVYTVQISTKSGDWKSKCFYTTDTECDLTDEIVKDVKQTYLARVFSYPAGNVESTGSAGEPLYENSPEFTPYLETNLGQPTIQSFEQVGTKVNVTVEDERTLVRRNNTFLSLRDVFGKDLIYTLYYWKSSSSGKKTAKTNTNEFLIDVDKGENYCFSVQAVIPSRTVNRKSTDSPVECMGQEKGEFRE
Chain of Tissue factor/factor VIIa complex: human tissue factor (residues 1-219) with human recombinant FVIIa (human) (P08709 61-466 limits assumed, chain 2 of 2, further chain): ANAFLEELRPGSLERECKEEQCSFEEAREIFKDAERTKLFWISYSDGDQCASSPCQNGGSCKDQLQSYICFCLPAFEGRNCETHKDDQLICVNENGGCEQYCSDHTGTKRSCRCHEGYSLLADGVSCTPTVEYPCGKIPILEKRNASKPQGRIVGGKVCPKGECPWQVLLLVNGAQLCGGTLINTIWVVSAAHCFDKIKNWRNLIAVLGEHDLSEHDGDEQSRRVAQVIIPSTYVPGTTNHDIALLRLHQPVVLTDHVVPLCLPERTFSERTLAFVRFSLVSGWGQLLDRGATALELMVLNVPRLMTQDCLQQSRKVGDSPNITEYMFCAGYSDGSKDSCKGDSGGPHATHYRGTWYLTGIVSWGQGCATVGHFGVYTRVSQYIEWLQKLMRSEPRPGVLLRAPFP
Chain of Factor Xa (Haematologic Technologies) (human) (P00742 41-179 limits assumed, chain 1 of 2): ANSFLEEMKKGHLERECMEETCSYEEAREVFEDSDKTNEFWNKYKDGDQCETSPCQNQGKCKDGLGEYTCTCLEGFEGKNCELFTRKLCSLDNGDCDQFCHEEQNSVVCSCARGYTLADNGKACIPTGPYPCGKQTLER
Chain of Factor Xa (Haematologic Technologies) (human) (P00742 235-488 limits assumed, chain 2 of 2): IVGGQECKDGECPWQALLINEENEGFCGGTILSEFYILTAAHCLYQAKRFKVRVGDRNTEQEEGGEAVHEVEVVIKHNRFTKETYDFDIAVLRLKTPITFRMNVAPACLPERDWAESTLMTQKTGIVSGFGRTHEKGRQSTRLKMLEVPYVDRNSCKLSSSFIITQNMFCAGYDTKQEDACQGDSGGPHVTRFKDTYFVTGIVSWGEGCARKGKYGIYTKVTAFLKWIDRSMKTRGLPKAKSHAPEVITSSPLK
Chain of Factor XIIa (American Diagnostica) (human) (P00748 20-615 limits assumed): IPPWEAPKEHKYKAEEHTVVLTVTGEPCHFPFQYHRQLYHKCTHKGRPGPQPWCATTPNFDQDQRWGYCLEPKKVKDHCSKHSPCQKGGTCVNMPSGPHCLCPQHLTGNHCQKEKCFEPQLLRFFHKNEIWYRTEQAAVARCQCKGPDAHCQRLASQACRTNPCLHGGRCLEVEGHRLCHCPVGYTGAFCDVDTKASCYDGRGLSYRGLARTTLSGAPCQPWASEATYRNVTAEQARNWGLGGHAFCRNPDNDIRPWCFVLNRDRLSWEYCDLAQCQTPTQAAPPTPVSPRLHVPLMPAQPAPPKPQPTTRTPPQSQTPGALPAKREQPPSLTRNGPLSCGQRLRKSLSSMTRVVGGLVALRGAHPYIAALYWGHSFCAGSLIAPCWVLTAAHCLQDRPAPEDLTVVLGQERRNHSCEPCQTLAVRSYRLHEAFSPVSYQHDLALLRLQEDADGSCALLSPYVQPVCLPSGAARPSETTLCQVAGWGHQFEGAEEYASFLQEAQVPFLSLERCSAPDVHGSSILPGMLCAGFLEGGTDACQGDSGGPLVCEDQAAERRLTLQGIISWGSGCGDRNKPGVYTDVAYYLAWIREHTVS
Chain of Activated Protein C (Haematologic Technologies) (human) (P04070 43-197, form in doubt, chain 1 of 2): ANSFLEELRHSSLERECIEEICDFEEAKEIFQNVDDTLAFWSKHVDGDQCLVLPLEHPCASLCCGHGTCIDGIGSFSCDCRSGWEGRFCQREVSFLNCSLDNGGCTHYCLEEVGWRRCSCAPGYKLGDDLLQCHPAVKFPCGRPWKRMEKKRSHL
Chain of Activated Protein C (Haematologic Technologies) (human) (P04070 212-461, form in doubt, chain 2 of 2): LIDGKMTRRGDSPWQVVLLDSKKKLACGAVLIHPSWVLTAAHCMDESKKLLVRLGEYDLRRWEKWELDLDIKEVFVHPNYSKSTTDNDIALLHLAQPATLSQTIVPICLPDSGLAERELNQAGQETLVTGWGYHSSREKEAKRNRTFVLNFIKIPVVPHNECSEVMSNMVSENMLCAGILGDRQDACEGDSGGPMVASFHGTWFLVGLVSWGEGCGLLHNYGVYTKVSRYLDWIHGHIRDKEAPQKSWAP

IC50 (nM), inhibition of enzyme activity on chromogenic substrate [1]: > 2000 nM
IC50 (nM), inhibition of enzyme activity on chromogenic substrate [2]: 2.4 nM
IC50 (sHAI-1B)/IC50 (KD1) [2]: 3
IC50 (nM), inhibition of enzyme activity on chromogenic substrate [3]: > 2000 nM
IC50 (nM), inhibition of enzyme activity on chromogenic substrate [4]: > 2000 nM
IC50 (nM), inhibition of enzyme activity on chromogenic substrate [5]: > 2000 nM
IC50 (nM), inhibition of enzyme activity on chromogenic substrate [6]: > 2000 nM
IC50 (nM), inhibition of enzyme activity on chromogenic substrate [7]: > 2000 nM
IC50 (nM), inhibition of enzyme activity on chromogenic substrate [8]: 30.5 nM
IC50 (sHAI-1B)/IC50 (KD1) [8]: 8
IC50 (nM), inhibition of enzyme activity on chromogenic substrate [9]: 21.1 nM
IC50 (sHAI-1B)/IC50 (KD1) [9]: 3
IC50 (nM), inhibition of enzyme activity on chromogenic substrate [10]: 16.5 nM
IC50 (sHAI-1B)/IC50 (KD1) [10]: 10
IC50 (nM), inhibition of enzyme activity on chromogenic substrate [11]: 686 nM
IC50 (sHAI-1B)/IC50 (KD1) [11]: 33
IC50 (nM), inhibition of enzyme activity on chromogenic substrate [12]: 399 nM
IC50 (sHAI-1B)/IC50 (KD1) [12]: 3
IC50 (nM), inhibition of enzyme activity on chromogenic substrate [13]: > 2000 nM
IC50 (nM), inhibition of enzyme activity on chromogenic substrate [14]: > 2000 nM
IC50 (nM), inhibition of enzyme activity on chromogenic substrate [15]: > 2000 nM
IC50 (nM), inhibition of enzyme activity on chromogenic substrate (uPA (Chemicon) (human)): > 2000 nM
Substance: sHAI-1B, soluble HAI-1B ectodomain (from UniProt O43278 36-465)
